# Experimental data from publication PMC8464030.
# T1: DRH-3 full length (Caenorhabditis elegans, UniProt Q93413 1-1119)
# T1 sequence: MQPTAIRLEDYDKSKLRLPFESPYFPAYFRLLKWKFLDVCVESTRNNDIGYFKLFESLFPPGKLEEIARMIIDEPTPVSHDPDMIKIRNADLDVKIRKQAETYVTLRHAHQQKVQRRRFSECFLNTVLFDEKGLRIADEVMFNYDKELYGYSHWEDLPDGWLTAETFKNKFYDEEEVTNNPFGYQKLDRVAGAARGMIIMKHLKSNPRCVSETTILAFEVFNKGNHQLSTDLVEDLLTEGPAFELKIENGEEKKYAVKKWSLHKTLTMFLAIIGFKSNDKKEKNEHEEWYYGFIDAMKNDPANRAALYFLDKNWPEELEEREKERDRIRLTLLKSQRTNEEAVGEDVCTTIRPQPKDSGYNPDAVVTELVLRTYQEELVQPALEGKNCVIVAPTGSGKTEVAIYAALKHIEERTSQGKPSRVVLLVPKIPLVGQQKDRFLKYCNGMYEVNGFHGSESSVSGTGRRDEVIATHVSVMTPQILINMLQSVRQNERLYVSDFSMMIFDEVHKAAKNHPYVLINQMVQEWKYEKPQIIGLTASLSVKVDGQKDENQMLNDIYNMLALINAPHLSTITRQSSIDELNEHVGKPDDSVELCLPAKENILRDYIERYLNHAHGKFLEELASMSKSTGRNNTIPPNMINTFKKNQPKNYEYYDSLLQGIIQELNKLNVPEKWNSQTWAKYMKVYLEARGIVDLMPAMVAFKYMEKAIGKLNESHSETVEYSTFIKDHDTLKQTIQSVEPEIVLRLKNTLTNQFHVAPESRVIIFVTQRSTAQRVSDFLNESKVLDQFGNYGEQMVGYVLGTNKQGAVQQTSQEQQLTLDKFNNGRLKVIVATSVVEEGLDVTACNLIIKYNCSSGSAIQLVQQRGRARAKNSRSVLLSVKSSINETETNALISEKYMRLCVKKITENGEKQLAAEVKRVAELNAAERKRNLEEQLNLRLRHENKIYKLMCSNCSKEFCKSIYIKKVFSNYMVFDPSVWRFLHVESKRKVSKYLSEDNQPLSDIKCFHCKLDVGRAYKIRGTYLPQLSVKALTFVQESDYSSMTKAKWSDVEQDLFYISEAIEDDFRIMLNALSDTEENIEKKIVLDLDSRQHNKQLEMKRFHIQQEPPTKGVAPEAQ
# T2: DRH-3 CTD (Caenorhabditis elegans, UniProt Q93413 940-1108)
# T2 sequence: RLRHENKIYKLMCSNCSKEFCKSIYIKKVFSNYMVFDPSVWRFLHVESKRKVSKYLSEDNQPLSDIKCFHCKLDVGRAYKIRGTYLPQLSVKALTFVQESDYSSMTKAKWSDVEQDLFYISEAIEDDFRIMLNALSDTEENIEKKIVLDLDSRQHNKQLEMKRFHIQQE
# T3: DRH-1 CTD (Caenorhabditis elegans, UniProt G5EDI8 877-1006)
# T3 sequence: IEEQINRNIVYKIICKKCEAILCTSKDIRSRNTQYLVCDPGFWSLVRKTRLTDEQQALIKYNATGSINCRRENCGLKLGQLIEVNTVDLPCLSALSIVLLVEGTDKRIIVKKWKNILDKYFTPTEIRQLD
# T4: RIG-I CTD (human, UniProt O95786 802-925)
# T4 sequence: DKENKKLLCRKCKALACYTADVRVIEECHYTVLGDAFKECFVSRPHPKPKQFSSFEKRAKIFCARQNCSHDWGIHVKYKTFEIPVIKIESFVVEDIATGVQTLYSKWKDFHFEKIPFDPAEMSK
# What was measured:
# DRH-3 full length [1] = target: T1, DRH-3 full length; test: size-exclusion chromatography
# DRH-3 CTD = target: T2, DRH-3 CTD; test: crystal structure
# DRH-3 full length [2] = target: T1, DRH-3 full length; test: size-exclusion chromatography; remark: listed apart in the source
# DRH-3 full length [3] = target: T1, DRH-3 full length; test: HDX-MS
# DRH-1 CTD = target: T3, DRH-1 CTD; test: limited proteolysis
# RIG-I CTD = target: T4, RIG-I CTD; test: limited proteolysis
binder,measurement,setting,value
"GC30 (30-bp dsRNA) (dsRNA, 5'-triphosphate on both strands) RNA 1: GGCGCGCGCGCGCGCGCGCGCGCGCGCGCGCC RNA 2: GGCGCGCGCGCGCGCGCGCGCGCGCGCGCGCC",binding result,DRH-3 full length [1],binds
"GGCCGCCC (ssRNA, 5'-triphosphate) [8-nt ssRNA]",binding result,DRH-3 CTD,binds
"Hairpin 30 (structured_RNA, 5'-triphosphate) RNA: GGACGUACGUACGUGCACGUACGUACGUGCUUCGGCACGUACGUACGUGCACGUACGUACGUCC",binding result,DRH-3 full length [2],binds
"GGACGUACGUUUCGACGUACGUCC (structured_RNA, 5'-triphosphate) [3p10L (SLR10)]",binding result,DRH-3 full length [3],binds
"R1 / 12-mer 5'-ppp dsRNA (dsRNA, 5'-triphosphate on both strands) RNA 1: GGCGCGCGCGCC RNA 2: GGCGCGCGCGCC",binding result,DRH-3 CTD,binds
same,binding result,DRH-1 CTD,binds
same,binding result,RIG-I CTD,binds
